Experimental data from US20180237497A1 (CANCER RESEARCH TECHNOLOGY, published 2018).

Legend:
[1] = target: T1, human IGF2^1-67 (mature insulin-like growth factor 2) (human, UniProt P01344 25-91, biotinylated (site not stated) where immobilised on the chip (Tables 1-4)); assay: cell-based or functional assay
[2] = target: T1, human IGF2^1-67 (mature insulin-like …); assay: SPR kinetic, Fc fusion captured by anti-human IgG, pH 7.4
Experimental: (§1) SPR analysis of the interaction of recombinant IGF1 and IGF2 forms with Fc-domain 11 proteins immobilised by antibody capture (CM5 chip containing monoclonal mouse anti-human IgG antibody immobilised by amine coupling). Measurements were carried out at 25° C. in HBS-EP buffer (pH 7.4).
(§2) Final kinetic analysis of mutants by SPR was conducted using a Biacore T200 biosensor at 25° C. in either HBS-EP (10 mM HEPES pH 7.4, 150 mM NaCl, 3 mM EDTA, and 0.005% (v/v) surfactant P20) or MES-EP (20 mM MES pH 6.5, 150 mM NaCl, 3 mM EDTA, and 0.005% (v/v) surfactant P20) at a flow-rate of 40 μL min⁻¹. […] For the analysis of the Fc-domain 11^AB5 interaction, approximately 50 RU of a biotinylated IGF2:biotinylated ubiquitin mixture (1:8 proportion) was immobilized on the CM5-streptavidin chip. This interaction was also analysed by immobilizing the Fc-domain 11^AB5 and Fc-domain 11^AB5-RHH (or Fc-domain 11^I1572A as control) by Human Antibody Capture (monoclonal mouse anti-human IgG antibody immobilised on a CM5 chip by amine coupling, GE Healthcare) with and without human IgG1 Fc fragment (Bethyl Laboratories, UK) in the control flow cell. […] T200 BiaEvaluation software (GE Healthcare) was used to fit the resulting curves according to a 1:1 binding model. Steady state affinities were determined using the kinetic data, taking the response average at 5 seconds before injection end and for 5 seconds average. Thermodynamic data was performed across the temperature range of 10° C. to 30° C., van't Hoff and Erying plots generated and ΔH, −TΔS and ΔG values determined as previously described.

[3] = target: pro-IGF2^1-104 (UniProt P01344 25-128); assay: as above
Chain of pro-IGF2^1-104 (P01344 25-128 limits assumed): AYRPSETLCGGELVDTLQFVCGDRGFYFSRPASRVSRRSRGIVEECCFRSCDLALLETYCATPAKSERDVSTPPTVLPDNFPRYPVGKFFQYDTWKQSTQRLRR
Experimental: as §1, §2

[4] = target: T2, pro-IGF2^1-156 (UniProt P01344 25-180); assay: as above
T2 construct: range 1-156
T2 sequence (P01344 25-180 limits assumed): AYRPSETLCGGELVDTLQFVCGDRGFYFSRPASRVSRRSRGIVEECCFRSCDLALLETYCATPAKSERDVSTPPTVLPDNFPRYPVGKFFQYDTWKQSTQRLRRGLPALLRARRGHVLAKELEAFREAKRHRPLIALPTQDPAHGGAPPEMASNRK
Experimental: as §1, §2

[5] = target: T1, human IGF2^1-67 (mature insulin-like …); assay: SPR kinetic, biotin-IGF2 on chip
Experimental: as §2

[6] = target: T1, human IGF2^1-67 (mature insulin-like …); assay: SPR steady state, biotin-IGF2 on chip
Experimental: as §2

[7] = target: T1, human IGF2^1-67 (mature insulin-like …); assay: SPR kinetic, biotin-IGF2 on chip, pH 7.4
In short: (§3)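 Biacore SPR at 25 °C in HBS-EP pH 7.4 or MES-EP pH 6.5, flow 40 μL/min; ~50 RU biotin-IGF2:biotin-ubiquitin (1:8) on streptavidin chip, or Fc-domain 11 captured via anti-human IgG. Kinetics fitted to 1:1 model; steady-state affinity from response averaged 5 s before injection end.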

[8] = target: T1, human IGF2^1-67 (mature insulin-like …); assay: SPR steady state, biotin-IGF2 on chip, pH 7.4
In short: as §3

[9] = target: T1, human IGF2^1-67 (mature insulin-like …); assay: SPR (Biacore T200, 25 °C, HBS-EP pH 7.4); ΔΔG° = RT ln(KD mutant / KD domain 11^AB3); box AB+CD
Experimental: (§4) Boxes show the change in the binding free energy contribution, ΔΔGº, for the indicated mutants. The loop/s that contains the mutation/s is indicated in each box. The ΔΔGº values were calculated as ΔΔGº=ΔGº domain 11^mutant−ΔGº domain 11^AB3=RTln(KD domain 11^mutant/KD domain 11^AB3). Additive and non-additive contributions of single point mutations are shown when calculated with a box solid line and dashed line, respectively.
(§5) Final kinetic analysis of mutants by SPR was conducted using a Biacore T200 biosensor at 25° C. in either HBS-EP (10 mM HEPES pH 7.4, 150 mM NaCl, 3 mM EDTA, and 0.005% (v/v) surfactant P20) or MES-EP (20 mM MES pH 6.5, 150 mM NaCl, 3 mM EDTA, and 0.005% (v/v) surfactant P20) at a flow-rate of 40 μL min⁻¹. […] This interaction was also analysed by immobilizing the Fc-domain 11^AB5 and Fc-domain 11^AB5-RHH (or Fc-domain 11^I1572A as control) by Human Antibody Capture (monoclonal mouse anti-human IgG antibody immobilised on a CM5 chip by amine coupling, GE Healthcare) with and without human IgG1 Fc fragment (Bethyl Laboratories, UK) in the control flow cell. […] Steady state affinities were determined using the kinetic data, taking the response average at 5 seconds before injection end and for 5 seconds average.

[10] = target: T1, human IGF2^1-67 (mature insulin-like …); assay: SPR kinetic, biotin-IGF2 on chip, pH 6.5
Experimental: Measurements were carried out at 25° C. in MES-EP buffer, 20 mM MES pH 6.5, 150 mM NaCl, 3 mM EDTA, and 0.005% (v/v) surfactant P20). Data for KD expressed as mean of each experiment, and means of kon and koff are shown.
as §2

[11] = target: T1, human IGF2^1-67 (mature insulin-like …); assay: SPR (Biacore T200, 25 °C, HBS-EP pH 7.4); ΔΔG° = RT ln(KD mutant / KD domain 11^AB3); box AB+CD+FG+FG, dashed outline
Experimental: as §4, §5

[12] = target: T1, human IGF2^1-67 (mature insulin-like …); assay: SPR, biotin-IGF2 on chip, lower pH (6.5); reference domain 11^WT
Experimental: as §2

[13] = target: T1, human IGF2^1-67 (mature insulin-like …); assay: SPR (Biacore T200, 25 °C, HBS-EP pH 7.4); ΔΔG° = RT ln(KD mutant / KD domain 11^AB3); box AB+CD+FG+FG
Experimental: as §4, §5

[14] = target: T1, human IGF2^1-67 (mature insulin-like …); assay: SPR (Biacore T200, 25 °C, HBS-EP pH 7.4); ΔΔG° = RT ln(KD mutant / KD domain 11^AB3); box AB+CD+FG, dashed outline
Experimental: as §4, §5

[15] = target: T1, human IGF2^1-67 (mature insulin-like …); assay: SPR (Biacore T200, 25 °C, HBS-EP pH 7.4); ΔΔG° = RT ln(KD mutant / KD domain 11^AB3); box AB+FG+FG, solid outline
Experimental: as §4, §5

T1 sequence (P01344 25-91): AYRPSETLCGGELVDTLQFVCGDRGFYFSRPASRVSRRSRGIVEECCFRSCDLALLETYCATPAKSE

Binder | Kd [7] | koff [7] | kon [7] | Kd [8] | Kd [10] | koff [10] | kon [10] | further results
human IgG1 Fc-domain 11^AB5 fusion protein (Fc fusion, Made in HEK293T; also called Fc-domain II^AB5; pHLSec-AB5-hIgG1; not shown: human IgG1 Fc) NEHDDCQVTNPSTGHLFDLSSLSGRAGFTAAYAKGWGVYMSICGENENCPPGVGACFGQTRISVGKANKRLRYVDQVLQLVYKDGSPCPSKSGLSYKSVISFVCRPEAGPTNRPMLISLDKQTCTLFFSWHTPLACEQAT | – | – | – | – | – | – | – | IC50, cell viability of HT29/219 in serum free conditions [1]: 1700 nM; IC50, cell viability of Hep3B in serum free conditions [1]: 35500 nM; IC50, cell viability of Huh7 in serum free conditions [1]: 1200 nM; Kd [2]: 3.89 nM; koff [2]: 0.025 s⁻¹; kon [2]: 6.47e+06 M⁻¹ s⁻¹; Kd [3]: 0.54 nM; koff [3]: 0.0069 s⁻¹; kon [3]: 1.29e+07 M⁻¹ s⁻¹; Kd [4]: 0.21 nM; koff [4]: 0.0009 s⁻¹; kon [4]: 4.19e+06 M⁻¹ s⁻¹
domain 11^AB3 Q1569R P1597H S1602H (receptor, See m5) MKSNEHDDCQVTNPSTGHLFDLSSLSGRAGFTAAYSKSGVVYMSICGENENCPPGVGACFGRTRISVGKANKRLRYVDQVLQLVYKDGSHCPSKHGLSYKSVISFVCRPEAGPTNRPMLISLDKQTCTLFFSWHTPLACEQATECSV | 0.74 nM | 0.01 s⁻¹ | 1.41e+07 M⁻¹ s⁻¹ | 1.53 nM | 0.4 nM | 0.0064 s⁻¹ | 1.61e+07 M⁻¹ s⁻¹ | fold improved overall affinity compared to domain 11^WT [12]: 100 fold; ΔΔG [13]: -1.79 kcal/mol
domain 11^AB3 Q1569R P1597H (receptor, See m5) MKSNEHDDCQVTNPSTGHLFDLSSLSGRAGFTAAYSKSGVVYMSICGENENCPPGVGACFGRTRISVGKANKRLRYVDQVLQLVYKDGSHCPSKSGLSYKSVISFVCRPEAGPTNRPMLISLDKQTCTLFFSWHTPLACEQATECSV | 0.9 nM | 0.0153 s⁻¹ | 1.89e+07 M⁻¹ s⁻¹ | 1.73 nM | 0.47 nM | 0.0091 s⁻¹ | 1.99e+07 M⁻¹ s⁻¹ | ΔΔG [14]: -1.68 kcal/mol
domain 11^AB5 P1597H S1602H (receptor, See m5) MKSNEHDDCQVTNPSTGHLFDLSSLSGRAGFTAAYAKGWGVYMSICGENENCPPGVGACFGQTRISVGKANKRLRYVDQVLQLVYKDGSHCPSKHGLSYKSVISFVCRPEAGPTNRPMLISLDKQTCTLFFSWHTPLACEQATECSV | 1.17 nM | 0.0046 s⁻¹ | 3.5e+06 M⁻¹ s⁻¹ | 2.93 nM | 0.62 nM | 0.0029 s⁻¹ | 5.32e+06 M⁻¹ s⁻¹ | ΔΔG [15]: -1.52 kcal/mol

The remaining binders from weak to strong by Kd [7], led by results:

Kd [7] | koff [7] | kon [7] | Kd [8] | Kd [10] | koff [10] | kon [10] | Binder | further results
2.3 nM | 0.031 s⁻¹ | 1.36e+07 M⁻¹ s⁻¹ | 3.15 nM | – | – | – | domain 11^AB3 Q1569R (receptor, See m5; also called AB3 + 73E (CD-Q1569R)) MKSNEHDDCQVTNPSTGHLFDLSSLSGRAGFTAAYSKSGVVYMSICGENENCPPGVGACFGRTRISVGKANKRLRYVDQVLQLVYKDGSPCPSKSGLSYKSVISFVCRPEAGPTNRPMLISLDKQTCTLFFSWHTPLACEQATECSV | Kd [5]: 2.3 nM; koff [5]: 0.031 s⁻¹; kon [5]: 1.36e+07 M⁻¹ s⁻¹; Kd [6]: 3.15 nM; ΔΔG [9]: -1.12 kcal/mol
2.24 nM | 0.0175 s⁻¹ | 8.04e+06 M⁻¹ s⁻¹ | 3.22 nM | – | – | – | domain 11^AB5 Q1569R (receptor, See m5) MKSNEHDDCQVTNPSTGHLFDLSSLSGRAGFTAAYAKGWGVYMSICGENENCPPGVGACFGRTRISVGKANKRLRYVDQVLQLVYKDGSPCPSKSGLSYKSVISFVCRPEAGPTNRPMLISLDKQTCTLFFSWHTPLACEQATECSV | ΔΔG [9]: -1.13 kcal/mol
1.95 nM | 0.0058 s⁻¹ | 3.2e+06 M⁻¹ s⁻¹ | 5.4 nM | 1.46 nM | 0.0034 s⁻¹ | 2.37e+06 M⁻¹ s⁻¹ | domain 11^AB5 Q1569R P1597H (receptor, See m5) MKSNEHDDCQVTNPSTGHLFDLSSLSGRAGFTAAYAKGWGVYMSICGENENCPPGVGACFGRTRISVGKANKRLRYVDQVLQLVYKDGSHCPSKSGLSYKSVISFVCRPEAGPTNRPMLISLDKQTCTLFFSWHTPLACEQATECSV | ΔΔG [14]: -1.22 kcal/mol
0.87 nM | 0.0058 s⁻¹ | 6.67e+06 M⁻¹ s⁻¹ | 2.01 nM | 0.69 nM | 0.0051 s⁻¹ | 7.54e+06 M⁻¹ s⁻¹ | domain 11^AB5 Q1569R P1597H G1603K (receptor, See m5) MKSNEHDDCQVTNPSTGHLFDLSSLSGRAGFTAAYAKGWGVYMSICGENENCPPGVGACFGRTRISVGKANKRLRYVDQVLQLVYKDGSHCPSKSKLSYKSVISFVCRPEAGPTNRPMLISLDKQTCTLFFSWHTPLACEQATECSV | ΔΔG [11]: -1.7 kcal/mol
